The values below come from doi:10.1101/2022.02.14.480394 (bioRxiv, 2022).

In the experiment the target is Receptor Binding-Domain (RBD) of SARS-CoV-2 Spike (S) protein, Wuhan-Hu-1 (SARS-CoV-2, UniProt P0DTC2). The experiment is described as follows: BLI.

B1: C105 (antibody, V domains shown)
VH: QVQLVESGGGLIQPGGSLRLSCAASGFTVSSNYMSWVRQAPGKGLEWVSVIYSGGSTYYADSVKGRFTISRDNSKNTLYLQMNSLRAEDTAVYYCARGEGWELPYDYWGQGTLVTVSS
VL: QSALTQPPSASGSPGQSVTISCTGTSSDVGGYKYVSWYQQHPGKAPKLMIYEVSKRPSGVPDRFSGSKSGNTASLTVSGLQAEDEADYYCSSYEGSNNFVVFGGGTKLTVL
For the molecule B1, the binding result is given as “binds”.

B2: C118 (antibody, V domains shown)
VH: QVQLVESGGGVVQPGRSLRLSCAASGFTFSNYAMHWVRQAPGKGLEWVAVISYDGSNKYYADSVKGRFTISRDNSKNTLYLQMNSLRAEDTAIYYCASGYTGYDYFVRGDYYGLDVWGQGTTVTVSS
VL: QPVLTQSPSASASLGASVKLTCTLSSGHSSYAIAWHQQQPEKGPRYLMKLNTDGSHSKGDGIPDRFSGSSSGAERYLTISSLQSEDEADYYCQTWGTGILVFGGGTKLTVL
With B2, the binding result is given as “binds”.
